Changes are numbered by the printed parent chain.
T1: RSV F protein of subtype A comprising a polypeptide of SEQ ID NO: 1 and a polypeptide of SEQ ID NO: 2 (RSV subtype A, UniProt P11209 137-513; P03420 26-109)
T1 construct: Stabilized prefusion F trimer made of three F2-F1 heterodimers; Produced recombinantly in CHO cells; also called RSV A; RSVA
T1 chain 1: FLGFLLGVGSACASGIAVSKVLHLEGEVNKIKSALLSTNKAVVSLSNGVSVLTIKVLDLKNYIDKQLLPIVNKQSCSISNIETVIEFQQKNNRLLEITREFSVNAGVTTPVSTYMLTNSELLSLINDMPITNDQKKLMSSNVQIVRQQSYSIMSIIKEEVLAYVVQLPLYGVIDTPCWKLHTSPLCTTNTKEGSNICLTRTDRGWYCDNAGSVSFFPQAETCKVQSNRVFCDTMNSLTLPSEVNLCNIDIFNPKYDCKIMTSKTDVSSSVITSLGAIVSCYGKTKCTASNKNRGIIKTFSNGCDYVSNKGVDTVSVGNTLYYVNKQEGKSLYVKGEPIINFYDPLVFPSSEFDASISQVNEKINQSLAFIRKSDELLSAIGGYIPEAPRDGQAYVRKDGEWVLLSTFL
T1 chain 2: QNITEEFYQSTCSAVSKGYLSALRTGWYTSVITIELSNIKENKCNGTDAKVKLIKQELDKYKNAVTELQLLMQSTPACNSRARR

T2: RSV F protein comprising a polypeptide of SEQ ID NO: 3 and a polypeptide of SEQ ID NO: 4 (RSV subtype B, UniProt O36634 137-513; O36634 26-109)
T2 construct: also called RSV B; RSVB
T2 chain 1: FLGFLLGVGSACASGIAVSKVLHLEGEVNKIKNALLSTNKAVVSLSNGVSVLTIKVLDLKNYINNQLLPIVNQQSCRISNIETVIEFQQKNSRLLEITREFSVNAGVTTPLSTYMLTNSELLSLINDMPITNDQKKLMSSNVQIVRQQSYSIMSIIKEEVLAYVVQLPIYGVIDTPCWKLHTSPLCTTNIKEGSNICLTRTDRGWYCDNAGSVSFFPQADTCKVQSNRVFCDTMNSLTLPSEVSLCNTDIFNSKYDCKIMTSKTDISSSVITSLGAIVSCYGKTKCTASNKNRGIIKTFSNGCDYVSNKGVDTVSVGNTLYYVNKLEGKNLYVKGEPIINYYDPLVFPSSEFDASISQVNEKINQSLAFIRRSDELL
T2 chain 2: T1 chain 2 with K17R, L20F, N42T, A49T, S74N, S80N

B1: AM14 (trimeric prefusion specific antibody of the AM14 ELISA) (antibody, V domains shown)
VH: EVQLVESGGGVVQPGRSLRLSCAASGFSFSHYAMHWVRQAPGKGLEWVAVISYDGENTYYADSVKGRFSISRDNSKNTVSLQMNSLRPEDTALYYCARDRIVDDYYYYGMDVWGQGATVTVSS
VL: DIQMTQSPSSLSASVGDRVTITCQASQDIKKYLNWYHQKPGKVPELLMHDASNLETGVPSRFSGRGSGTDFTLTISSLQPEDIGTYYCQQYDNLPPLTFGGGTKVEIKR
notes: Antibody as used in the AM14 ELISA, detected with an HRP-labeled secondary antibody

Tests used:
[1] = biological target: RSV A + RSV B bivalent composition (RSV subtype A; RSV subtype B); assay: AM14 Fab titration by SEC; Low-Fast cycle; T0
[2] = biological target: RSV A + RSV B bivalent composition (RSV subtype A; RSV subtype B); assay: AM14 Fab titration by SEC; High-Slow 1 cycle; 1 M 40°C
[3] = biological target: RSV A + RSV B bivalent composition (RSV subtype A; RSV subtype B); assay: AM14 Fab titration by SEC; High-Slow 2 cycle; 1 M 40°C
[4] = biological target: RSV A + RSV B bivalent composition (RSV subtype A; RSV subtype B); assay: AM14 Fab titration by SEC; High-Slow 1 cycle; 3 M 2-8°C
[5] = biological target: T1, RSV F protein of subtype A comprising a …; assay: AM14 ELISA; F15 (pH 6, 0 mM NaCl, 9% sucrose); T0
[6] = biological target: T1, RSV F protein of subtype A comprising a …; assay: AM14 ELISA; F9 (pH 8, 50 mM NaCl, 4.5% sucrose); T0
[7] = biological target: T1, RSV F protein of subtype A comprising a …; assay: AM14 ELISA; F17 (pH 7, 50 mM NaCl, 4.5% trehalose); T0
[8] = biological target: T1, RSV F protein of subtype A comprising a …; assay: AM14 ELISA; F3 (pH 8, 0 mM NaCl, 9% sucrose); 2 wk 5°C
[9] = biological target: T1, RSV F protein of subtype A comprising a …; assay: AM14 ELISA; F8 (pH 7, 50 mM NaCl, 0% sucrose); 2 wk 25°C
[10] = biological target: T1, RSV F protein of subtype A comprising a …; assay: AM14 ELISA; F10 (pH 7, 50 mM NaCl, 4.5% sucrose); 2 wk 25°C
[11] = biological target: T1, RSV F protein of subtype A comprising a …; assay: AM14 ELISA; F17 (pH 7, 50 mM NaCl, 4.5% trehalose); 1 wk 5°C
[12] = biological target: T1, RSV F protein of subtype A comprising a …; assay: AM14 ELISA; F17 (pH 7, 50 mM NaCl, 4.5% trehalose); 1 wk 25°C
[13] = biological target: T1, RSV F protein of subtype A comprising a …; assay: AM14 ELISA; F19 (pH 7, 50 mM NaCl, 3% trehalose + 3% mannitol); 1 wk 25°C
[14] = biological target: T2, RSV F protein comprising a polypeptide …; assay: AM14 prefusion assay relative to standard; RSV B 480 µg/mL, 2% sucrose + 4% mannitol; post-lyo T0

Molecule	Prefusion Content (%) [1]	Prefusion Content (%) [2]	Prefusion Content (%) [3]	Prefusion Content (%) [4]	AM14 prefusion content (%), relative to standard [5]	AM14 prefusion content (%), relative to standard [6]	AM14 prefusion content (%), relative to standard [7]	AM14 prefusion content (%), relative to standard [8]	AM14 prefusion content (%), relative to standard [9]	AM14 prefusion content (%), relative to standard [10]	AM14 prefusion content (%), relative to standard [11]	AM14 prefusion content (%), relative to standard [12]	AM14 prefusion content (%), relative to standard [13]	AM14 prefusion content (%), relative to standard [14]
AM14 Fab	76%	51%	52%	49%										
B1					106%	94%	86%	70%	85%	81%	59%	105%	75%	82%

— patent US20260097113A1 (Pfizer, published 2026)
